B1: miR301a-3p (ssRNA)
RNA: CAGUGCAAUAGUAUUGUCAAAGC
B2: miR204-5p (ssRNA)
RNA: UUCCCUUUGUCAUCCUAUGCCU

Target: FXR1 (rFXR1) (human, UniProt P51114 1-621)
Assay: EMSA; 1 ug E. coli tRNA, 1.5 mM EDTA; EMSA: 0.5 pmol 32P-miRNA in 20 ul, 20 mM Na-HEPES pH 7.0, 150 mM NaCl, 0.75 mM DTT, 1.5 mM EDTA, 10% glycerol, 1 ug E. coli tRNA, 37 C 30 min; 12% native PAGE
Details: protein: recombinant, His-tag (pET28a), thrombin-cleaved in final dialysis, single strand

FXR1 (rFXR1), sequence (P51114 whole entry): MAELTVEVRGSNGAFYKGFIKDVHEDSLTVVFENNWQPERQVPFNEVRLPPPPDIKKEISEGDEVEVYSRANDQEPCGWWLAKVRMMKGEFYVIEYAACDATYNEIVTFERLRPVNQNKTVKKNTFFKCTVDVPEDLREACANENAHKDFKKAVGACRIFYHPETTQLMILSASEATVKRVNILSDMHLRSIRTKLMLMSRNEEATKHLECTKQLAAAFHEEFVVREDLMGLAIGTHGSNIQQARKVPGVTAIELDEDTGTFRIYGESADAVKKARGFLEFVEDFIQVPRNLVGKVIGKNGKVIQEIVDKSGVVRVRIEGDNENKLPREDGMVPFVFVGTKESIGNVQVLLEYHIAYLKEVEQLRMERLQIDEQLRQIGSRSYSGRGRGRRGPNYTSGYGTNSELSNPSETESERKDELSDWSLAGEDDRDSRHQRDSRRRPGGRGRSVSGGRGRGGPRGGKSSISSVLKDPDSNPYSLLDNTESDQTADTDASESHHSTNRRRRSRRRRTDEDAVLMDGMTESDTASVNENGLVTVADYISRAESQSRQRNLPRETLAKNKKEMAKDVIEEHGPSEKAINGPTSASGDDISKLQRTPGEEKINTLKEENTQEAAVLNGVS

| Binder | binding result (label: 5'-32P) | binding result (label: 32P) |
| --- | --- | --- |
| B1 | binds | – |
| B2 | – | no binding |
